{"source": "patent US20240324599A1", "about": "“PESTICIDAL ENZYMES FOR USE ON NEMATODES, INSECTS, AND MOLLUSKS” (priority 2023, published 2024)", "format_in_all_cases": "in vivo", "key": {"[1]": {"tested_on": "soybean cyst nematode (SCN, Heterodera glycines)", "assay": "Controlled environment soybean seed treatment trial: SCN cysts on roots", "conditions": "for % Comparison to Control: base control = 100%, change in brackets"}, "[2]": {"tested_on": "Diamondback moth (Plutella xylostella)", "assay": "Diet-surface overlay (DSO) bioassay", "conditions": "Table 44, Lipase 0.14 U/mL diet", "procedure": "(§1) Diet-surface overlay bioassays are conducted with artificial diet mixes without antibiotics in 1.5 cm^2 cell bioassay trays(s). Artificial diets are commercially available from Southland Products Inc. Diets were prepared by dispersing 0.5 mL of molten diet to each 1.5 cm^2 cell. After solidification, 0.1 mL enzyme treatments were dispersed on top of diet in each cell and the tray was gently rocked in an orbital shaker to spread the liquid uniformly over the diet surface. Trays were placed under clean airflow until the surface of each cell was uniformly dried. One or two 16-cell sections were used per treatment (the number in larvae treated was 16 or 32).\n(§2) One healthy first instar larva was placed into each treatment cell, each 16-cell section was covered with a re-sealable lid and incubated at 27° C. and light-dark period of 16:8 hrs. After 7 days, and according to the species, the number of individuals in the following developmental categories was recorded.\n(§3) Diamondback moth (Plutella xylostella): Dead Larva (lack of movement), Larva Stage I (≤50% relative size), Larva Stage II (100% relative size, full size), Early Pupa (light green color), Late Pupa (light-dark brown color), and Adult.\n(§4) Negative/untreated controls were treated with filtered water and positive controls were treated with lethal doses of Bacillus thuringiensis subsp. Kurstaki (Btk) spores at 1000 ppm."}, "[3]": {"tested_on": "Btk resistant Diamondback moth", "assay": "Diet-surface overlay (DSO) bioassay", "conditions": "Table 45", "procedure": "as §1, §2, §3, §4\nHowever, both neutral proteases reduced the number of individuals reaching adult stage."}}}
{"molecule": "Chitinase C (protein, listed as Bacillus thuringiensis) DSPKQSQKIVGYFPSWGVYGRNYQVADIDASKLTHLNYAFADICWKGKHGNPSTHPDNPNKQTWNCKESGVPLQNKEVPNGTLVLGEPWADVTKSYPGSGTTWEDCDKYARCGNFGELKRLKAKYPHLKTIISVGGWTWSNRFSDMAADEKTRKVFAESTVAFLRAYGFDGVDLDWEYPGVETIPGGSYRPEDKQNFTLLLQDVRNALNKAGAEDGKQYLLTIASGASQRYADHTELKKISQILDWINIMTYDFHGGWEATSNHNAALYKDPNDPAANTNFYVDGAIDVYTNEGVPVDKLVLGVPFYGRGWKSCGKENNGQYQPCKPGSDGKLASKGTWDDYSTGDTGVYDYGDLTANYVNKNGFVRYWNDTAKVPYLYNATTGTFISYDDNESMKYKTDYIKTKGLSGAMFWELSGDCRTSPKYSCSGPKLLDTLVKELLGGPINQKDTEPPTNVKNIIVTNKTSSSVQLSWTASTDNVGVTEYEITAGEEKWSATTNSITIKNLKPNTEYTFSVIAKDASGNKSHPTALTVKTDEANTTPPDGNGTATFSVTSNWGSGYNFSIIIKNNGTIPIKNWKLEFDYSGNLTQVWDSKISSKTNNHYVITNAGWNGEIPPGGSITIGGAGTGNPAELLNAVISEN", "values": [{"measurement": "% Comparison to Control", "setting": "[1]; Table 18", "result": "78% (−22%)"}, {"measurement": "Average cysts per g of root tissue", "setting": "[1]; Table 18, free enzyme seed treatment, base control 58.3", "result": "45.7 cysts per g of root tissue"}]}
{"molecule": "Bacillus thuringiensis Lipase 1 (protein, listed as Bacillus thuringiensis) YGFVSGVNDVLNPKASNLIKKTDVVAKEKKKTGTLQIVSLGDSLTRGVGDKEGIGYVGRMKEDLQKDYKQKIALTNLAVSGAKMPDLLKQIESNGAQYSIKQADVIVLTIGGNDLFPGWESLGKIDLETYRPDTETFQNEAKKIIEEIRKLNTDSPIFWLGLYNPFEDVEDLKGSSNIVVDWNASLEKLALNDKNVYITPTFDLFQNRGKDLLYSDHFHPNEVGYTYMAERLVQNVVSKLKLEQGGVK", "values": [{"measurement": "% Comparison to Control", "setting": "[1]; Table 19", "result": "75% (−25%)"}, {"measurement": "Average cysts per g of root tissue", "setting": "[1]; Table 19, free enzyme seed treatment, soybean 2830E3, base control 442.5", "result": "332.0 cysts per g of root tissue"}]}
{"molecule": "Bacillus pumulis Collagenase B (ColB) (protein, listed as Bacillus pumulis, listed as Bacillus pumilus, Collagenase B (ColB)) IVNGKRVITKKPELLAPAGNLEKLKIAVHYGADAVFIGGQEYGLRSNADNFTIEEIAEGVEFAKKYGAKIYVTTNIFAHNENMDGLEDYLKALGDANVAGIIVADPLIIETCRRVAPNVEVHLSTQQSLSNWKAVQFWKEEGLDRVVLARETSALEIREMKEKVDIEIESFIHGAMCIAYSGRCVLSNHMTARDSNRGGCCQSCRWDYDLYQTDGANAVALYGEEDAPFAMSPKDLKLIESIPKMIEMGIDSLKIEGRMKSIHYVATVVSVYRKVIDAYCADPENFVIQKEWLEELDKCANRDTATAFFEGTPGYEEQMFGEHAKKTTYDFVGLVLNYDEDTQMVTLQQRNFFKKGDEVEFFGPEIENFTHTIETIWDEDGNELDAARHPLQIVKFKLDKKIYPSNMMRKGK", "values": [{"measurement": "% Comparison to Control", "setting": "[1]; Table 22", "result": "15% (−85%)"}, {"measurement": "Average cysts per g of root tissue", "setting": "[1]; Table 22, free enzyme seed treatment, soybean 2830E3, base control 470.7", "result": "70.9 cysts per g of root tissue"}]}
{"molecule": "Pseudomonas sp. esterase free enzyme concentrate (SEQ ID NO: 248): free enzyme concentrated in an Amicon Ultra 4K filter unit (protein, listed as Pseudomonas sp.) MTEPLILQPVKPADACVIWLHGLGADRYDFLPVAEALQEILLSTRFVLPQAPTRPVTINGGYAMPSWYDIKAMSPARAIDRDELEASADRIIELIEEQRSSGIDASRIFLAGFSQGGAVVYHTAFLKWQGPLGGVLALSTYAPTFSDELELSASQQRIPVLSLHGQFDNVVQNSMGRTAYEYLKAHGVTVTWQEYPMEHEVLPEEIRDIGTWLSERLR", "values": [{"measurement": "% Comparison to Control", "setting": "[1]; Table 16", "result": "75% (−25%)"}, {"measurement": "Average cysts per g of root tissue", "setting": "[1]; Table 16, seed treatment, soybean 2830E3, concentrate = 4× volumetric concentration, base control 244.3", "result": "182.1 cysts per g of root tissue"}]}
{"molecule": "Bacillus thuringiensis Lipase (Lip1) (protein, listed as Bacillus thuringiensis, Lipase (Lip1 H192)) MRLMRRCVALLIVFFIMAPMISTNVRAGVVKELKTGFPDQEVFTPGEWFLGQKPANYDENKPPILFVQGRNGNADSWYGKTVYHDINDMYDYALKAGYQTVFIQLYDAAGKGSASQWDNGKLLAQKLEEIYNHFGKKVNIVAHSKGGIDTQAALVGYGANRFVGNVITLATPHHGSNLADLSYSWWAGWLASILGQKDDGTYSLQMGEMAKFRSTIDNNPAAKLNRYYTVTGTSWGPVFSALSMGGLYLSSYGSNDGLVNECSAKLPYGTHLFTDSRFDHDNIRKGSAVFARIEPYLRTANVPVPALVASSTSSNENIEQLNTTSNQSILGGELPQNQWIEQTVAVDKKAEGIVSILTASSDVEVQMISPKGKVYTNKDSVITTGEGESFFGGATIRTFKFDKMDVGEWKVKMMTKQSKDAYLVVSDYKTGAPFVLQMPTKVKANKSEYKLKKSPVAPEMKGDLSITVRVVNKEGKLVSEFNELQNVNNNTFTGALKNIKQPGVYNVTMDIKGMNKEGKSYSRTIVKSVYVEK", "values": [{"measurement": "Dead Larva", "setting": "[2]; individuals of n = 16 after 7 days, water 0", "result": 0}, {"measurement": "Larva Stage I", "setting": "[2]; n = 16, water 0", "result": 0}, {"measurement": "Larva Stage II", "setting": "[2]; n = 16, water 0", "result": 0}, {"measurement": "Early Pupa", "setting": "[2]; n = 16, water 3", "result": 3}, {"measurement": "Late Pupa", "setting": "[2]; n = 16, water 3", "result": 13}, {"measurement": "Adult", "setting": "[2]; n = 16, water 10", "result": 0}, {"measurement": "Dead Larva", "setting": "[3]; Btk resistant strain, individuals of n = 32 after 7 days, U/mL diet: SEQ 76 1.4, Bc 3.8, Pf 5.2, water 3", "result": 1}, {"measurement": "Adult", "setting": "[3]; n = 32, doses as E86, water 0", "result": 0}, {"measurement": "Larva Stage I", "setting": "[3]; n = 32, doses as E86, water 0", "result": 9}, {"measurement": "Larva Stage II", "setting": "[3]; n = 32, doses as E86, water 0", "result": 12}, {"measurement": "Early Pupa", "setting": "[3]; n = 32, doses as E86, water 7", "result": 10}, {"measurement": "Late Pupa", "setting": "[3]; n = 32, doses as E86, water 22", "result": 0}]}
{"molecule": "Bacillus thuringiensis Lipase 2 (protein, listed as Bacillus thuringiensis) EVVKELGKGFPDTEVFTPGEWFLGQKPANYDENKPPILFVQGRNGNADSWYGKTVYHDINDMYDYALKAGYQTVFIQLYDAAGKGSASQWDNGKLLAQKLEEIYNYFGKKVNIVAHSKGGIDTQAALVEYGANRFVGNVITLATPHHGSNLADLSYSWWAGWLASILGQKDDGTYSLQIGEMAKFRSIIDNNPAAKLNRYYTATGTSWGPTFSALSMGGLYLSSYGSNDGLVNEWSAKLSYGTHLFTDSRFDHDNIRKGSAVFARIEPYLRTTNVGLPALVASSTSSNEDLEQLNTTSNQNILGGELPQNQWIEQSISVDKKAEGIVSVLTASSDVEVQMVSPKGKIYANKDSAITTGEGESFFNRATIRTFKFDKLEVGEWKIKMMAKQSKDAYLVVSDYKDDAPFVLRMPTKVKINKPEYKLKKSPVAPEMKGDLSITVRVVNKEGKLVSEFNELQNVNTNTFTGALKDIKQPGVYNVTMDIKGMNKEGKPYNRTIVKSVYVEK", "values": [{"measurement": "% Comparison to Control", "setting": "[1]; Table 20", "result": "57% (−43%)"}, {"measurement": "Average cysts per g of root tissue", "setting": "[1]; Table 20, free enzyme seed treatment, soybean 2830E3, base control 459.7", "result": "264.3 cysts per g of root tissue"}]}
